According to paper PMC6212398 (2018):
Read-outs that look alike come from different tables or passages of the source. One block for each binder: values may come before it.

Columns and labels:
Assay in all cases: ITC
[1] = target: T1, Hsp27 alpha-crystallin domain (ACD, residues Q80–S176) (human, UniProt P04792 80-176)
[2] = target: T1, Hsp27 alpha-crystallin domain (ACD, …); remark: listed apart in the source
[3] = target: Hsp27 GPG (isoleucine and valine of the IPV motif mutated to glycine) (human, UniProt P04792 1-205, isoleucine of the IPV (Ile179 as printed in p-0007) to glycine)
Chain of Hsp27 GPG (isoleucine and valine of the IPV motif mutated to glycine) (P04792 other isoform, or with tags, fused parts or gaps with the stated changes): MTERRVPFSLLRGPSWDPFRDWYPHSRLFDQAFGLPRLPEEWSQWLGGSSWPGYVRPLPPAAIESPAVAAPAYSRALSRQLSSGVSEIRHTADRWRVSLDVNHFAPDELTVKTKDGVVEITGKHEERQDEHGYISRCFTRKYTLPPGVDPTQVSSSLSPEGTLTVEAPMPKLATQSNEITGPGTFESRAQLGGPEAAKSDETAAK

T1 sequence (P04792 80-176): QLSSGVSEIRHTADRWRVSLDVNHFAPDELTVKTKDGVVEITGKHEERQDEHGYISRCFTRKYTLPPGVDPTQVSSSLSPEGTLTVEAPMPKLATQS

Kd [1]: 12.6 µM
B1: Hsp27 IPV H peptide with Ile179 mutated to alanine (peptide)
chain: EITAPVTHE
modifications: EITAPVTHE. The paper numbers the peptide from E176, so printed Ile179 (I of IPV) is UniProt I181. Peptide termini chemistry is not stated.

Kd [1]: 9.43 µM
B2: T184A (peptide)
chain: EITIPVAHE
modifications: synthetic 9-mer; alanine-scan variant of the His-containing IPV peptide … (gives EITIPVAHE). The T184 label fits UniProt numbering, not the shifted numbering printed in the text. Termini not stated

Kd [1]: 4.23 µM
Binder: EITIAVTHE [Hsp27 IPV H peptide with the second X residue (Pro) of IXIXV mutated to alanine (EITIAVTHE)]

Kd [2]: 7.3 µM | Kd [3]: 6.8 µM
Binder: EITIPVTHE [Hsp27 IPV H peptide (EITIPVTHE)]
